Experimental findings from paper PMC3964825 are described below.

Targets include EZH2-EED (UniProt Q15910;O75530 1-746;1-441); LSD1 (UniProt O60341 1-852); PRC2 3m (EZH2-EED-SUZ12) (UniProt Q15910;O75530;Q15022 1-746;1-441;1-739).
Common to all, as to test: EMSA
Background: A gel shift assay detects complexes by their altered migration in electrophoresis.

Sequence of EZH2-EED (Q15910 whole entry, chain 1 of 2): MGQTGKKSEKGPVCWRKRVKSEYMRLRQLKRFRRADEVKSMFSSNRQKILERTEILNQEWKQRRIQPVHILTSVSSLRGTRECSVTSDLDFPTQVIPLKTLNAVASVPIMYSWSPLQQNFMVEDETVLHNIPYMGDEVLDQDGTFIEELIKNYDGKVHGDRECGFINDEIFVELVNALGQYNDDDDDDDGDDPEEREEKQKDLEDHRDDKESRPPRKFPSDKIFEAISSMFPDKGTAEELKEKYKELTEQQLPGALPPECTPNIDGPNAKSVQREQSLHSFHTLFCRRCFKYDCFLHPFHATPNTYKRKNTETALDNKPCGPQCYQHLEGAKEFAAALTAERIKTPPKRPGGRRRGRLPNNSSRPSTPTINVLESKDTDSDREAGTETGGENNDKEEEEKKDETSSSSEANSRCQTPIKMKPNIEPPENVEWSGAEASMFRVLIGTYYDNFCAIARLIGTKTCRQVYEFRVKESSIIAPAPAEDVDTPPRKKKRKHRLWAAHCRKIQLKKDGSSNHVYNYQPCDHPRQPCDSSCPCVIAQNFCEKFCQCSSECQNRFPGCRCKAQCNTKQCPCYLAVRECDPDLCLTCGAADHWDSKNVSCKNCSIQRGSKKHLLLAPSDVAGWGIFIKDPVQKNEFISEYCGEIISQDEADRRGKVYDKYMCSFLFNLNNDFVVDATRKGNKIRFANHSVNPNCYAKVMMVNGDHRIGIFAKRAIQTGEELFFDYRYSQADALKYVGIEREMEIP
Sequence of EZH2-EED (O75530 whole entry, chain 2 of 2): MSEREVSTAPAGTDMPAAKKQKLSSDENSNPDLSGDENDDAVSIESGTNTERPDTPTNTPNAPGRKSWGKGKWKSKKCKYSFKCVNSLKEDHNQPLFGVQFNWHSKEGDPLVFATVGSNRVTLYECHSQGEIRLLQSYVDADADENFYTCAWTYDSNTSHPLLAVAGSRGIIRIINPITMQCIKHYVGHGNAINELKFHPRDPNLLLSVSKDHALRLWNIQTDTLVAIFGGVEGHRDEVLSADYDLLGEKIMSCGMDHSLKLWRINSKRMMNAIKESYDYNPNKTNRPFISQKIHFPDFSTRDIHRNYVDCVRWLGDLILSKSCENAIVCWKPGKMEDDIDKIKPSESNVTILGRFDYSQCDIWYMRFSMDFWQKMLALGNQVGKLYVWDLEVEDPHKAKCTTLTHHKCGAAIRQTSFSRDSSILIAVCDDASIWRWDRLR
Sequence of PRC2 3m (EZH2-EED-SUZ12) (Q15910 whole entry, chain 1 of 3): as the sequence (Q15910 whole entry, chain 1 of 2) above
Sequence of PRC2 3m (EZH2-EED-SUZ12) (O75530 whole entry, chain 2 of 3): as the sequence (O75530 whole entry, chain 2 of 2) above
Sequence of PRC2 3m (EZH2-EED-SUZ12) (Q15022 whole entry, chain 3 of 3): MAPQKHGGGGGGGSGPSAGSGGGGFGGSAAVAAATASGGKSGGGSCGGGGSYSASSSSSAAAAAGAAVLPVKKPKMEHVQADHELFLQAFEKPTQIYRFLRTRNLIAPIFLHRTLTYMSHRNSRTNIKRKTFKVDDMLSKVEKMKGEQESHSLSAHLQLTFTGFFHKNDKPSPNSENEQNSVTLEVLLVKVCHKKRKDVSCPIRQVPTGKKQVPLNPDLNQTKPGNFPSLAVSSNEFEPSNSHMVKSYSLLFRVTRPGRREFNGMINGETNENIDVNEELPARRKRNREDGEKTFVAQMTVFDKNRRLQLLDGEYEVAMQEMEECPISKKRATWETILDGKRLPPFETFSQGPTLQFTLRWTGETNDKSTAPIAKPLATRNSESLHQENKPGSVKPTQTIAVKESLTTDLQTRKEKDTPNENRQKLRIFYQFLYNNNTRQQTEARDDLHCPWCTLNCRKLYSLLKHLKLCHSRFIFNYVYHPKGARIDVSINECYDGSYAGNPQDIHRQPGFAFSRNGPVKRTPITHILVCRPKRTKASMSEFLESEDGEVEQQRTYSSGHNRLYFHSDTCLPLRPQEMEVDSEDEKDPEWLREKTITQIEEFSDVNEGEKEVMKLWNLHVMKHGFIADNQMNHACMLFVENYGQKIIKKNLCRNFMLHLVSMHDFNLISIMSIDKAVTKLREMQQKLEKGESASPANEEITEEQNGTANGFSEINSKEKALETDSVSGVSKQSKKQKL

B1: HOTAIR 1-100 (structured_RNA)
RNA: GACUCGCCUGUGCUCUGGAGCUUGAUCCGAAAGCUUCCACAGUGAGGACUGCUCCGUGGGGGUAAGAGAGCACCAGGCACUGAGGCCUGGGAGUUCCACA
For the molecule B1, in the series with EZH2-EED, the binding result is reported as “no binding”.

B2: HOTAIR 201-300 (structured_RNA)
RNA: GCAGUGGAAUGGAACGGAUUUAGAAGCCUGCAGUAGGGGAGUGGGGAGUGGAGAGAGGGAGCCCAGAGUUACAGACGGCGGCGAGAGGAAGGAGGGGCGGAU
As a reminder, the Kd is a measure of binding affinity in units of concentration. Higher therefore signals a looser complex. In the series with EZH2-EED, B2 came in with a Kd of 157 ± 12 nM.

B3: HOTAIR 212-300 (minHOTAIR) (structured_RNA)
RNA: GGAACGGAUUUAGAAGCCUGCAGUAGGGGAGUGGGGAGUGGAGAGAGGGAGCCCAGAGUUACAGACGGCGGCGAGAGGAAGGAGGGGCGGAU
Take B3: in the series with LSD1, the binding result was “no binding”. Further, the Kd with PRC2 3m (EZH2-EED-SUZ12) was 111 ± 10 nM; with EZH2-EED, 135 ± 20 nM.

B4: HOTAIR 101-300 (structured_RNA)
RNA: GACCAACACCCCUGCUCCUGGCGGCUCCCACCCGGGGCUUAGACCCUCAGGUCCCUAAUAUCCCGGAGGUGCUCUCAAUCAGAAAGGUCCUGCUCCGCUUCGCAGUGGAAUGGAACGGAUUUAGAAGCCUGCAGUAGGGGAGUGGGGAGUGGAGAGAGGGAGCCCAGAGUUACAGACGGCGGCGAGAGGAAGGAGGGGCGGAU
Take B4: the Kd in the series with EZH2-EED stood at 119 ± 18 nM.
